Data taken from a protein production outcome set (Wang et al. 2014).

Assay: label from the status in PepcDB records
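Further: failed if final PepcDB status was selected cloned or expressed and not failed if soluble or beyond.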

Sequence	protein production
WYEDGLVCTLAYQNHRAPLVFIIAGTGASHNTPRMVKLRSALYQGGFHVISLTSPTHMDFVVNASSGLPGDPLDDARDLYRVMEMAYDAVRDTIDVSGFDLAGYSLGAFNAAFVARLDEEEKRFNFSKVLLINPPVSLYESVAALDQLLVENVPQGMEQFDAWFRSVFAEFSHVSREVGPGSLSGDFIYSAYKRFPPNEENLAALIGLSFRMSAANMIFTADVMNGGGYIVPRNARLTATSSLTRYATVSLHTRFTDYFDEWFFPNRRHREPSLTRQALLARMSLRSQEAYLRNADKVGLIHNEDDIILAPGDIDYLQGVFGGRARLFPTGGHMGNMFHPDVVSFMIDFL	failed
MSSLNLSPAAVSELVFSQTGLALISLLLTLFCYFAAKILYQRHRVWWLAPIVLAPVVITLLVFNLDIPLPTYFEYTHWLMAMLAPATIAFALPIYRERKLIRQYPLTIAFGVIAGLLLGMVSSWLLVKFVPLPVELSKSLLVRSVSTPFAMEATGAFGGVPELTAMMVLITGIIGMLVCEPLFKLMHIRTSLGKGVALGASAHGAGAAKASELGQQEGVIASLTMIFIGIAMVLGAPFFALIFS	failed
GEGIQPSKKLITRDYKVKEFNKIDAGTVGNIYYTQSTDGKTDLQIYGPDNIVALIQVAVKDNTLFLSIDKSKKVRNFKKMKITITSPTLNGISFKGVGDVHIENGLTTDNLDIESKGVGNVDIQSLTCQKLNVQSMGVGDVKLEGTAQIAALHSKGVGNIEAGNLRANAVEASSQGVGDITCNATESIDAAVRGVGSIKYKGSPTIKSLSKKGVGTIKNI	not failed
MTTIRRFSCNDLLRFTSVNLDHLTETFNMSFYMTYLARWPDYFHVAEGPGNRVMGYIMGKVEGQGESWHGHVTAVTVSPEYRRQQLAKKLMNLLEDISDKIDKAYFVDLFVRASNTPAIKMYEKLGYIIYRRVLRYYSGEEDGLDMRKALSRDVEKKSVIPLKRPITPDELEYD	failed
MSALDIPVTPENYTVWYEYFAQSNLDLNRAIDGFLANNVVFTKEVNTSLYKNFIQEKSPEVIENVQIETQILINSLISKITQLNQGTEAFSNTLADFGLQLQSSPDVNTLNQLVDGVIDEMQNLLVNNQTMEQSLNAMGQEVQNLKTEMENLSLAAMTDQLTSLHNRRAYEIAIQDHIHRAEEQHTRCSLLLIDIDRFKVFNDTYGHQVGDKVLAYVALALKQCVRGDDFVARYGGEEFVVLLPNTHFHDALQVAETLRGRISERRLAIGKDKKLSLGAITVSIGLASLQKGDDAETLFSRADKALYEAKSDGRNCVRG	failed
MLAIFQKAFAHPPEELNSPASHFSGKTPKLPGETLSDFLSHHQNNAFSMNFGDSAVLAYARQETSLRQRLFCGLDGIYCMFLGRLNNLCTLNRQYGLSGKNSNEAMFVIEAYRTLRDRGPYPADQVLRGLEGSFAFVVYDTQTSSVFSALSSDGGESLYWGISGDGSVVMSDDIQIIKQGCAKSFAPFPNGCMFHSETGLKSFDHPTNMMKAMPRIDSEGVLCGASFKVDACSKINSIPRRGSEANWALANSR	failed
SSCGNDESDPDSTVTIAMATVEKQPQYDAPYLVLDNGEKLWVVQHIVPYRDLKAGERIFGNYSFLEAGESGFAYNIRLNDYTLVPVQKIIGLNPDNMDSIGNMKVQIKDMWPSDDYLNVRFMLNFPSPQKPILNLVVNEMIPWTKDGYAHLELRYNNNGSQGRLVPGMVSFKLDDYSPENSELKGIKVLVNPVDGEEKTYIFSYPLTGEDVPGFNPLDLAELK	not failed
MAKLTTDSPLCRKIVRSFLNFLDSVEVAPGVDEEGLEVARECLREAFKLNSDSSRDDDDDSFKPISLVNLFTSLDNNETIPPPPPPPVAATTQDPSSSGSHVSVDTCKEPSFTGTSRDELFGQLFGALEKVRYFRNTPDGDDDPAQLEKATRIFHDCVNEMEKSGCQTFDVNSLAETLKCQGNKAMQSNLYLEAVELYSFAIALTDKNAVFYCNRAAAYTQINMCSEAIKDCLKSIEIDPNYSKAYSRLGLAYYAQGKYAEAIEKGFKKALLLDPHNESVKENIRVAEQKIREEQQRQRRSQQNTSTFYTQEPEMGGGQGIPSQFSMPVNPDLMSMFMNMAGNTFPGNHSRNNEGGAGGDGTRNGADEPEIHVGGNINIDLGGTEQMPEDLSGALRSMMQMFGGSMGGTGNNNPQDSNGAQGRPSGN	failed
MQEISAYTLIKEKLQAIPNLRHKGILFEKISKQFLQEHDSANEYESIDLWYDWKLRGNERDKGIDIVITTFKQRIHRCAMQIPSK	failed
MSIGLSLTFGLYLLVLVGIGVYFFLRTETRRLTDYMLAGRDVGTWPLALSEVASVASGWTFFAWVGVGFTTGLHGLWFSMAMLVVVLFLYRYVAPTFRRQSEALDSQTVVDHLALVFRDSPWGPRIRWTATLAVVVFMASYIGAQIIAVGEAMETGLGLNYAVSVGAGGLAVALYTTLGGFDASVWTDFVQGLLVILAALALPLVAIAEIGGWGAFVTAVRAADPTLLSMTAGQTGTALALSVGSWLAFALGALGQPHGLMRFQAIRSERLLSRASVIALAFQALRLTVPLFIGMAGRVLYGSMNDPESAAMEMMVQLFPDWFAGLLLAGIIGAVLSTSDSMMLVTSADLTRLYETQLAGGVLPARMIRLGRGIVGVMALLGVGLAYWRPGTIFDIIEFAFVGLGATLGLPLAFLVLWPRTTGAGVFAAVAAGLGSAVGNLYLSPATFPILVWPITLTAFLGASYATAPSSPVTASSS	failed
MIGLVPSPIELSYISDISVPKAASAPAYYDLRALNRLTSVKDQGTAGTCWAFASYSSLESYLKPGEDWDFSENNMKNLLSSAYQEGFDRDPNDGGNRIQAAAYLARWSGPVKESDDPYSTFSGVSPADLPIKKHVQDVIFIPDRADPLDNEAIKWAVQNYGAVYTTMHYNNTFYSPEYYSYYFNGTSEPNHAVAIVGWDDSYDRNNFSKVPPGNGAFIMKNSWGPEWGDKGYFYVSYYDSKAGNGSSVFTAENPENYEYIYQYDPFGWVSSMGYSKPLAWVSNVFTAKSDEVLKAVSFYTTDSNCNYEIYIYTDPVSGPINPAGPVLSKNGTCLTAGYHTIPLDSEVRLIAGQKFSVVIKLTNPSYRYLIPLEKPKDSWSSKARANTGESFISSSGSTWTDVNTSYANSNVCIKAFTNSVLLPIANFSSNITEGYAPLSVQFRDLSGHSTDRTWDFENDGNIDSVEANPIHLFSAPGSLEHHHHHH	failed
MSKLIGMLLNDKQVYVGPFLRGKKGILLAVESLKGNTFDDKQWVVDRAQKKSEREMELKVPYEQSLKEIADKFQSYNFRGSGFVAFSTQNVTISGICKDVIDESVAMPPSVGPRMPIYPLGSPGIRKSMFYG	not failed
MEKNQSDDDGTALIFLGTGCSGAVPDFRCLLQPSDPPCHVCSQSLSLLPHLNPNYRCNTSLLIDYCSKEEDGRHKYILIDVGKSFREQIILTHEHADAVHGLDEIRSLQPRGATIVDTDPLPVFLSQFTMESIATRFPYLVEKKVKEVPRRVSLLDWKNIEENCDEPFAASGLSFTPLPVMHGEDYIALGFLFGDKSKVAYISDVSRIPPSTEYAISKAGAGQLDLLILDTNIPWKRGPHPTHICFTEALEILKRLCPKRALLTGMTHEFDHHEYNEILAEWSLRDYVDF	failed
DDSSDPKTSKSATSSEASSAAEAAPAELPTAEELNAILAVATDPAAPVEQKVATVQGGETAPELFETMTASKQESGANFQ	failed
MSHSHSHGHSHEPTNYNRAFIISVALNTGFVVIEVVYGLAANSLALLADAGHNLSDVLGLLLAWGASFLGRRQPTPRRTYGLRRSSILAALLNAVLVLVASGAVAWEAIQRFAQPSPVSGSTIIGVAAVGIAINMGSALMFLSGRERDLNIRGAFIHLVADAAVSLGAVLAGIAIVATGWLWFDPVVSLMIVVVIIVSTWQLFQESLNLVTDAVPAGIEPLAVRTFLAELPGVSSIHDLHIWAMSTTETALTAHLIMPAGNLSDAFLVQVNQQLHDHFGIEHTTIHIETGDPSYPCPLAQENVV	failed
LHYVHVGNKKSPNTLLFVHGSGCNLKIFGELEKYLEDYNCILLDLKGHGESKGQCPSTVYGYIDNVANFITNSEVTKHQKNITLIGYSMGGAIVLGVALKKLPNVRKVVSLSGGARFDKLDKDFMEKIYHNQLDNNYLLECIGGIDNPLSEKYFETLEKDPDIMINDLIACKLIDLVDNLKNIDIPVKAIVAKDELLTLVEYSEIIKKEVENSELKIFETGKHFLLVVNAKGVAEEIKNFI	failed
MAARDPEATKARIFEAAVAEFARHGIAGARIDRIAAEARANKQLIYAYYGNKGELFASVLEKKMLDLAISVPVDPDDIEGWIDRLLDYHAAHPELLRLLFWEGMEYGTAELPHEAERQEHYARKVAAVRDGQERGVITDAIPAPDLLFLLVAMANWAVVVPQMKRILVGGGDAGTDGLRDSIKKAARRIVDR	not failed
MGHHHHHHSHMTDCEFGYIYRLAQDYLQCVLQIPQPGSGPSKTSRVLQNVAFSVQKEVEKNLKSCLDNVNVVSVDTARTLFNQVMEKEFEDGIINWGRIVTIFAFEGILIKKLLRQQIAPDVDTYKEISYFVAEFIMNNTGEWIRQNGGWENGFVKKFEPK	not failed
MTSTCTICERIKLIQAHQNPYFVYELTTGYVVLADSQYFEGYTLFLAKHHVTELHHLPAHEKLRYLEEMSIVQEACAQAFHADKMNIELLGNGDAHVHWHLFPRHNGDTPNPGPVWWTPLETIYGDDVSLDIPRLSRLKRTLSVAIEATLNAREAELQALEALTRPASHRIDSN	failed
MGSVAARDYVGIATKYAEAAVADKGRKRHGRWIRLAAKRFLDDLKRARRRGTPFFFDEWHANDACDFIEKLPHVEGKWETPTIVMHPSHVFFVVQLFGFRRRDAIKVEGWGDDDTFHPRRFTSALFAVARKNAKSTLASAILLYCLCCEPEEGAQVISAATTFDQASIIFRASKRMVEKTPDLAEAFGLATWAKSISRFETGSSYKAVHAKASTQDGLNPSHTGLDEIHAHKTADLLNVLQSAAGARANPLWLFTTTEGYTNAGPWAEIRGFVFALLRGVLGTQADHFLALFYALDNEDKSAKITQDDEFDESKWIKANPLLDVNPHLKAAIRKEAVEAKQMPSKLAEFRIKRCNRPASTASGWVDLTKWAKCGGAVDLDWLAGYPCWGGLDLASTTDIAAFRLLWLVEGVWYTHGWRWVPSEAVKQRTERATVPYAGWVEAGYLLQTEGDVTDYSVIERDILAAVQRFDPQQIAYDAWNAADLVNRLVAASVPMVQFVQGTKSYHPAMQALELAYVGGKLVHGGDPVLAWCASNLVARRDVNLSMAPDRKRSADKIDDMAALLMAMGLAVASDDAEDLSDFFNNAVIGLEHHHHHH	not failed
MEIVFLGGAKEVGASCVLIKAGGKNILLDSGIRMKEDKLPNLQLLRELGGADVCLISHAHLDHIGSLPLIAREYPHIFFYTNQPTKDLIKVLLYDSLKIMDAKEDEIPIYAEKNVEDLLDRTITYGFNYTFEPLEGIKVTFFPAGHILGASMIFIQTQEGSVLYTGDFSTDKQLTVDKASIPKIRPDVVICESTYGDRLHTNRNYEEERLFNSIYEFISKGGKVLIPAFAIGRAQEIILILRNYMKKKKVEFNVFIDGMVREVIRVYKNNPTFLSSRYYKKVLKGEEIFLSDNIDIITDKKQREEIMSSSDPCVIISSSGMLTGGPSVFYAEKLVENQNALIAITGYQDEESPGRKLLELTELPESERKIELNGKEYEVKCKVEKYGLSAHADRDSILGFLAMLKPKTVVFAHGSEEAISQLSDMAIKEIESAVLIPQNGEMNTISIEKPRRQLSFFNVKKLSNIEPLNEENIKSLWEYLLESKQEANHITAEHAILIWNGKQFLERDEVNRVFELLKSSPYFEQNPRKPYLFRILSRTEVENKLKPKPMEQNKMRELAFEMFKDFGLYKVGMDNENVVVTFYFNFPHIANRLEDKIKEFEEKTLWKVEVNPNINLTYAQKYLQKLLEDEGVKLLKFSYNPVINAIVVKPNKEFDSMKELCSKFLDETGIELIFDIENKEDCTARLQNKDRMEQNKALLLIDLYFENEKDKVYKKSIKEGGKYIELSFVTPFVAEKYKDKLNELSQKTGWEIRISQTINQVEMVNILKDILAKYNIDLIKNPSIYPSIREVRIKLAGEIDSNIVNEIANEFYDRTGFYLKI	failed
